The results in this text go back to article PMC10695385.

The test concerns the target SYD-2/Liprin-α N-terminal fragment (coiled-coils and IDR) (UniProt Q21049). Put plainly: GFP-trap pull-down, Coomassie gel. The conditions noted are these: reference: SAD-1-phosphorylated wild-type SAM; sites S896,S901,S904.

Regarding “SYD-2/Liprin-α SAM domains, 844-1139 (from UniProt Q21049) SAD-1-phosphorylated SAM(3A)”, the “binding against the reference” value is given as “stronger”.
